Numbered stars: 1 amine (or outer) side, 2 acyl side, 3 side chain; on linkers, the order of the positions; unused ones are H or OH. * marks the point of attachment. C20 diacid = O=C(O)CCCCCCCCCCCCCCCCCCC(=O)*; C18 diacid = O=C(O)CCCCCCCCCCCCCCCCC(=O)*; γGlu = O=C(O)[C@H](CCC(=O)[*:2])N[*:1]; C14 diacid = O=C(O)CCCCCCCCCCCCC(=O)*
What was measured:
[1] = biological target: T1, human amylin 3(a) receptor (human calcitonin receptor co-expressed with RAMP-3) (human, UniProt P30988 25-474; O60896 24-148, limits assumed); experiment: cell-based or functional assay
T1 sequence (looked up) 1: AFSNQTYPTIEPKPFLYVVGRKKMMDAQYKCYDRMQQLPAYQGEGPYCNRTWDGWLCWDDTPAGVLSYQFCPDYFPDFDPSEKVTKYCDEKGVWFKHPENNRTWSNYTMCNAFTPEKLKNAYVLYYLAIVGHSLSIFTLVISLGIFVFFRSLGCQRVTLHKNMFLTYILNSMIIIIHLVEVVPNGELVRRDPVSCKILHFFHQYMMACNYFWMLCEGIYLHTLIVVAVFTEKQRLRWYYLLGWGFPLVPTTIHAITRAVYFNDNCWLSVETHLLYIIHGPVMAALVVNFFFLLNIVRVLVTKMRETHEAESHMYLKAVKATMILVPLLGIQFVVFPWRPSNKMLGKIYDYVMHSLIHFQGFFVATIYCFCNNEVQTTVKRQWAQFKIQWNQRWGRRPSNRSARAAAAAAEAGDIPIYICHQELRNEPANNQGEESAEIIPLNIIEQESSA
T1 sequence (looked up) 2: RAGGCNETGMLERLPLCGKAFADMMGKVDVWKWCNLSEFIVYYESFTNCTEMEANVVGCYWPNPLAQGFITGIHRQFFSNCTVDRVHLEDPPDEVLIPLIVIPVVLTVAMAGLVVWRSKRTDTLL

[2] = biological target: T2, human calcitonin receptor (human, UniProt P30988 25-474); experiment: cell-based or functional assay
T2 sequence (looked up): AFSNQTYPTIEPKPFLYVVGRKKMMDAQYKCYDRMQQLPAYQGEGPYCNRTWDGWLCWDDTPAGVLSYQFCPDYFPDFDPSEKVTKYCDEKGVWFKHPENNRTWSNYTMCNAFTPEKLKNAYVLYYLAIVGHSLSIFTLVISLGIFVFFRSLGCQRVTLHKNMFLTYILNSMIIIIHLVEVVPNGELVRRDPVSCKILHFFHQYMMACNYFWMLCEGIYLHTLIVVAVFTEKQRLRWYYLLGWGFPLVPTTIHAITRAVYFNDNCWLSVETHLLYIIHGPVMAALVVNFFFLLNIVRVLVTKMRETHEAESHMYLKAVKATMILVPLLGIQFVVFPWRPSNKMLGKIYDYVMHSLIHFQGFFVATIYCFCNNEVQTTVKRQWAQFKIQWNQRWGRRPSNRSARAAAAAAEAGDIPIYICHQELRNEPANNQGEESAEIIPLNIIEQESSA

| Binder | hAmylin-R funct. EC50 (pM) [1] | hCTR funct. EC50 (pM) [2] |
| --- | --- | --- |
| {C18 diacid-γGlu}-ASELSTAALGRLSAELHELATLPRTETGSESP-NH2 (SMILES CC(C)C[C@H](NC(=O)[C@H](C)NC(=O)[C@H](C)NC(=O)[C@@H](NC(=O)[C@H](CO)NC(=O)[C@H](CC(C)C)NC(=O)[C@H](CCC(=O)O)NC(=O)[C@H](CO)NC(=O)[C@H](C)NC(=O)CC[C@H](NC(=O)CCCCCCCCCCCCCCCCC(=O)O)C(=O)O)[C@@H](C)O)C(=O)NCC(=O)N[C@@H](CCCNC(=N)N)C(=O)N[C@@H](CC(C)C)C(=O)N[C@@H](CO)C(=O)N[C@@H](C)C(=O)N[C@@H](CCC(=O)O)C(=O)N[C@@H](CC(C)C)C(=O)N[C@@H](Cc1c[nH]cn1)C(=O)N[C@@H](CCC(=O)O)C(=O)N[C@@H](CC(C)C)C(=O)N[C@@H](C)C(=O)N[C@H](C(=O)N[C@@H](CC(C)C)C(=O)N1CCC[C@H]1C(=O)N[C@@H](CCCNC(=N)N)C(=O)N[C@H](C(=O)N[C@@H](CCC(=O)O)C(=O)N[C@H](C(=O)NCC(=O)N[C@@H](CO)C(=O)N[C@@H](CCC(=O)O)C(=O)N[C@@H](CO)C(=O)N1CCC[C@H]1C(N)=O)[C@@H](C)O)[C@@H](C)O)[C@@H](C)O) [[N-terminal(C18 diacid-gGlu), des1, 30S]mimylin] | 9 pM | 4 pM |
| {C18 diacid}-EASEISTAILGRLSAELHELATLPRTETGPESP-NH2 (SMILES CC[C@H](C)[C@H](NC(=O)[C@H](C)NC(=O)[C@@H](NC(=O)[C@H](CO)NC(=O)[C@@H](NC(=O)[C@H](CCC(=O)O)NC(=O)[C@H](CO)NC(=O)[C@H](C)NC(=O)[C@H](CCC(=O)O)NC(=O)CCCCCCCCCCCCCCCCC(=O)O)[C@@H](C)CC)[C@@H](C)O)C(=O)N[C@@H](CC(C)C)C(=O)NCC(=O)N[C@@H](CCCNC(=N)N)C(=O)N[C@@H](CC(C)C)C(=O)N[C@@H](CO)C(=O)N[C@@H](C)C(=O)N[C@@H](CCC(=O)O)C(=O)N[C@@H](CC(C)C)C(=O)N[C@@H](Cc1c[nH]cn1)C(=O)N[C@@H](CCC(=O)O)C(=O)N[C@@H](CC(C)C)C(=O)N[C@@H](C)C(=O)N[C@H](C(=O)N[C@@H](CC(C)C)C(=O)N1CCC[C@H]1C(=O)N[C@@H](CCCNC(=N)N)C(=O)N[C@H](C(=O)N[C@@H](CCC(=O)O)C(=O)N[C@H](C(=O)NCC(=O)N1CCC[C@H]1C(=O)N[C@@H](CCC(=O)O)C(=O)N[C@@H](CO)C(=O)N1CCC[C@H]1C(N)=O)[C@@H](C)O)[C@@H](C)O)[C@@H](C)O) [[N-terminal(C18 diacid), 5I, 9I]mimylin] | 10 pM | 7 pM |
| {C18 diacid}-EASELSTAALGRLSAELHELATLPRTETGPEHP-NH2 (SMILES CC(C)C[C@H](NC(=O)[C@H](C)NC(=O)[C@H](C)NC(=O)[C@@H](NC(=O)[C@H](CO)NC(=O)[C@H](CC(C)C)NC(=O)[C@H](CCC(=O)O)NC(=O)[C@H](CO)NC(=O)[C@H](C)NC(=O)[C@H](CCC(=O)O)NC(=O)CCCCCCCCCCCCCCCCC(=O)O)[C@@H](C)O)C(=O)NCC(=O)N[C@@H](CCCNC(=N)N)C(=O)N[C@@H](CC(C)C)C(=O)N[C@@H](CO)C(=O)N[C@@H](C)C(=O)N[C@@H](CCC(=O)O)C(=O)N[C@@H](CC(C)C)C(=O)N[C@@H](Cc1c[nH]cn1)C(=O)N[C@@H](CCC(=O)O)C(=O)N[C@@H](CC(C)C)C(=O)N[C@@H](C)C(=O)N[C@H](C(=O)N[C@@H](CC(C)C)C(=O)N1CCC[C@H]1C(=O)N[C@@H](CCCNC(=N)N)C(=O)N[C@H](C(=O)N[C@@H](CCC(=O)O)C(=O)N[C@H](C(=O)NCC(=O)N1CCC[C@H]1C(=O)N[C@@H](CCC(=O)O)C(=O)N[C@@H](Cc1c[nH]cn1)C(=O)N1CCC[C@H]1C(N)=O)[C@@H](C)O)[C@@H](C)O)[C@@H](C)O) [[N-terminal(C18 diacid), 32H]mimylin] | 20 pM | 17 pM |
| {C20 diacid}-EASELSTAALGRLSAELHELATLPRTETGSGSP-NH2 [[N-terminal(C20 diacid), 30S, 31G]mimylin] | 11 pM | 9 pM |
| {C18 diacid}-EASEVSTAVLGRLSAELHELATLPRTETGPESP-NH2 (SMILES CC(C)C[C@H](NC(=O)[C@H](CCC(=O)O)NC(=O)[C@H](Cc1c[nH]cn1)NC(=O)[C@H](CC(C)C)NC(=O)[C@H](CCC(=O)O)NC(=O)[C@H](C)NC(=O)[C@H](CO)NC(=O)[C@H](CC(C)C)NC(=O)[C@H](CCCNC(=N)N)NC(=O)CNC(=O)[C@H](CC(C)C)NC(=O)[C@@H](NC(=O)[C@H](C)NC(=O)[C@@H](NC(=O)[C@H](CO)NC(=O)[C@@H](NC(=O)[C@H](CCC(=O)O)NC(=O)[C@H](CO)NC(=O)[C@H](C)NC(=O)[C@H](CCC(=O)O)NC(=O)CCCCCCCCCCCCCCCCC(=O)O)C(C)C)[C@@H](C)O)C(C)C)C(=O)N[C@@H](C)C(=O)N[C@H](C(=O)N[C@@H](CC(C)C)C(=O)N1CCC[C@H]1C(=O)N[C@@H](CCCNC(=N)N)C(=O)N[C@H](C(=O)N[C@@H](CCC(=O)O)C(=O)N[C@H](C(=O)NCC(=O)N1CCC[C@H]1C(=O)N[C@@H](CCC(=O)O)C(=O)N[C@@H](CO)C(=O)N1CCC[C@H]1C(N)=O)[C@@H](C)O)[C@@H](C)O)[C@@H](C)O) [[N-terminal(C18 diacid), 5V, 9V]mimylin] | 20 pM | 14 pM |
| {C18 diacid}-EASELSTAALGRLSAELHELATLPRTETGSGSP-NH2 [[N-terminal(C18 diacid), 30S, 31G]mimylin] | 9 pM | 6 pM |
| {C18 diacid}-EASELSTAALGRLSAELHELATLPRTETGPESP-NH2 (SMILES CC(C)C[C@H](NC(=O)[C@H](C)NC(=O)[C@H](C)NC(=O)[C@@H](NC(=O)[C@H](CO)NC(=O)[C@H](CC(C)C)NC(=O)[C@H](CCC(=O)O)NC(=O)[C@H](CO)NC(=O)[C@H](C)NC(=O)[C@H](CCC(=O)O)NC(=O)CCCCCCCCCCCCCCCCC(=O)O)[C@@H](C)O)C(=O)NCC(=O)N[C@@H](CCCNC(=N)N)C(=O)N[C@@H](CC(C)C)C(=O)N[C@@H](CO)C(=O)N[C@@H](C)C(=O)N[C@@H](CCC(=O)O)C(=O)N[C@@H](CC(C)C)C(=O)N[C@@H](Cc1c[nH]cn1)C(=O)N[C@@H](CCC(=O)O)C(=O)N[C@@H](CC(C)C)C(=O)N[C@@H](C)C(=O)N[C@H](C(=O)N[C@@H](CC(C)C)C(=O)N1CCC[C@H]1C(=O)N[C@@H](CCCNC(=N)N)C(=O)N[C@H](C(=O)N[C@@H](CCC(=O)O)C(=O)N[C@H](C(=O)NCC(=O)N1CCC[C@H]1C(=O)N[C@@H](CCC(=O)O)C(=O)N[C@@H](CO)C(=O)N1CCC[C@H]1C(N)=O)[C@@H](C)O)[C@@H](C)O)[C@@H](C)O) [[N-terminal(C18 diacid)]mimylin] | 8 pM | 5 pM |
| {C18 diacid}-EASELSTAALGRLSAELHELATYPRTETGPESP-NH2 (SMILES CC(C)C[C@H](NC(=O)[C@H](C)NC(=O)[C@H](C)NC(=O)[C@@H](NC(=O)[C@H](CO)NC(=O)[C@H](CC(C)C)NC(=O)[C@H](CCC(=O)O)NC(=O)[C@H](CO)NC(=O)[C@H](C)NC(=O)[C@H](CCC(=O)O)NC(=O)CCCCCCCCCCCCCCCCC(=O)O)[C@@H](C)O)C(=O)NCC(=O)N[C@@H](CCCNC(=N)N)C(=O)N[C@@H](CC(C)C)C(=O)N[C@@H](CO)C(=O)N[C@@H](C)C(=O)N[C@@H](CCC(=O)O)C(=O)N[C@@H](CC(C)C)C(=O)N[C@@H](Cc1c[nH]cn1)C(=O)N[C@@H](CCC(=O)O)C(=O)N[C@@H](CC(C)C)C(=O)N[C@@H](C)C(=O)N[C@H](C(=O)N[C@@H](Cc1ccc(O)cc1)C(=O)N1CCC[C@H]1C(=O)N[C@@H](CCCNC(=N)N)C(=O)N[C@H](C(=O)N[C@@H](CCC(=O)O)C(=O)N[C@H](C(=O)NCC(=O)N1CCC[C@H]1C(=O)N[C@@H](CCC(=O)O)C(=O)N[C@@H](CO)C(=O)N1CCC[C@H]1C(N)=O)[C@@H](C)O)[C@@H](C)O)[C@@H](C)O) [[N-terminal(C18 diacid), 23Y]mimylin] | 11 pM | 7 pM |
| {C18 diacid}-EASELSTAVIGRLSAELHELATLPRTETGPESP-NH2 (SMILES CC[C@H](C)[C@H](NC(=O)[C@@H](NC(=O)[C@H](C)NC(=O)[C@@H](NC(=O)[C@H](CO)NC(=O)[C@H](CC(C)C)NC(=O)[C@H](CCC(=O)O)NC(=O)[C@H](CO)NC(=O)[C@H](C)NC(=O)[C@H](CCC(=O)O)NC(=O)CCCCCCCCCCCCCCCCC(=O)O)[C@@H](C)O)C(C)C)C(=O)NCC(=O)N[C@@H](CCCNC(=N)N)C(=O)N[C@@H](CC(C)C)C(=O)N[C@@H](CO)C(=O)N[C@@H](C)C(=O)N[C@@H](CCC(=O)O)C(=O)N[C@@H](CC(C)C)C(=O)N[C@@H](Cc1c[nH]cn1)C(=O)N[C@@H](CCC(=O)O)C(=O)N[C@@H](CC(C)C)C(=O)N[C@@H](C)C(=O)N[C@H](C(=O)N[C@@H](CC(C)C)C(=O)N1CCC[C@H]1C(=O)N[C@@H](CCCNC(=N)N)C(=O)N[C@H](C(=O)N[C@@H](CCC(=O)O)C(=O)N[C@H](C(=O)NCC(=O)N1CCC[C@H]1C(=O)N[C@@H](CCC(=O)O)C(=O)N[C@@H](CO)C(=O)N1CCC[C@H]1C(N)=O)[C@@H](C)O)[C@@H](C)O)[C@@H](C)O) [[N-terminal(C18 diacid), 9V, 10I]mimylin] | 7 pM | 6 pM |
| {C14 diacid-γGlu}-ASELSTAALGRLSAELHELATLPRTETGPESP-NH2 [[N-terminal(C14 diacid-gGlu), des1]mimylin] | 8 pM | 3 pM |

Reference: patent US20160272683A1 (Novo Nordisk, published 2016)
